From US20240141007A1

Target: human FcRn (human) (UniProt P55899)
Experiment: SPR, hFcRn as ligand

Sequence of human FcRn (human) (P55899 24-297 limits assumed, chain 1 of 2): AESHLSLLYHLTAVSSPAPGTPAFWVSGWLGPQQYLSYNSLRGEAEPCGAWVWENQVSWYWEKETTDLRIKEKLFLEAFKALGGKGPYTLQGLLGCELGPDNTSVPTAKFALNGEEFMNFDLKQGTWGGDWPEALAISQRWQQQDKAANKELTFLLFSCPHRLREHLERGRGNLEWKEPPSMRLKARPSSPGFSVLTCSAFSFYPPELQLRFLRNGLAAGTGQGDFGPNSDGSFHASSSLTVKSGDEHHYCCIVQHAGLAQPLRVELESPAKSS
Sequence of human FcRn (human) (P61769 21-119 limits assumed, chain 2 of 2, further chain): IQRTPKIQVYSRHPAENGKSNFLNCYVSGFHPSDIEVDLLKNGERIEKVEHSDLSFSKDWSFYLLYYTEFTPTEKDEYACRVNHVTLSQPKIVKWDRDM

Ipilimumab (antibody) gave a Kd of 518 nM.
